Where no end group is shown, it is not given here. [ ]: non-standard residue; d: D form. pS = N[C@@H](COP(=O)(O)O)C(=O)O
Biological target: SUMO1 (UniProt P63165)
Chain of UniProt P63165 (P63165 1-97): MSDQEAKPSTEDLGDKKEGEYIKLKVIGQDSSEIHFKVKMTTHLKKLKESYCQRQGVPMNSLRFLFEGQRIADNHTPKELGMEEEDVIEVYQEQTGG

PLIKQEDIKPEPDFTIQYRNKIIDTAGCIVI[pS]D[pS]EEEQG (also: FITC label, site not given here) [phosphorylated IE2-NTD (IE2-ppNTD)]
rate of increase in anisotropy, real-time SUMOylation assay with SUMO1: 0.00021 min⁻¹

PLIKQEDIKPEPDFTIQYRNKIIDTAGCIVISDSEEEQG (also: FITC label, site not given here) [IE2 N-Terminal Domain (IE2-NTD), FITC labelled]
rate of increase in anisotropy, real-time SUMOylation assay with SUMO1: 0.00012 min⁻¹
